# Publication PMC5148605, “Prefabrication of a ribosomal protein subcomplex essential for eukaryotic ribosome formation” (eLife, 2016)
# T1: GST-Msn5 (S. cerevisiae, UniProt P52918 1-1224)
# T1 construct: Msn5, S. cerevisiae; source: E. coli BL21, purified as previously described
# T1 sequence (looked up): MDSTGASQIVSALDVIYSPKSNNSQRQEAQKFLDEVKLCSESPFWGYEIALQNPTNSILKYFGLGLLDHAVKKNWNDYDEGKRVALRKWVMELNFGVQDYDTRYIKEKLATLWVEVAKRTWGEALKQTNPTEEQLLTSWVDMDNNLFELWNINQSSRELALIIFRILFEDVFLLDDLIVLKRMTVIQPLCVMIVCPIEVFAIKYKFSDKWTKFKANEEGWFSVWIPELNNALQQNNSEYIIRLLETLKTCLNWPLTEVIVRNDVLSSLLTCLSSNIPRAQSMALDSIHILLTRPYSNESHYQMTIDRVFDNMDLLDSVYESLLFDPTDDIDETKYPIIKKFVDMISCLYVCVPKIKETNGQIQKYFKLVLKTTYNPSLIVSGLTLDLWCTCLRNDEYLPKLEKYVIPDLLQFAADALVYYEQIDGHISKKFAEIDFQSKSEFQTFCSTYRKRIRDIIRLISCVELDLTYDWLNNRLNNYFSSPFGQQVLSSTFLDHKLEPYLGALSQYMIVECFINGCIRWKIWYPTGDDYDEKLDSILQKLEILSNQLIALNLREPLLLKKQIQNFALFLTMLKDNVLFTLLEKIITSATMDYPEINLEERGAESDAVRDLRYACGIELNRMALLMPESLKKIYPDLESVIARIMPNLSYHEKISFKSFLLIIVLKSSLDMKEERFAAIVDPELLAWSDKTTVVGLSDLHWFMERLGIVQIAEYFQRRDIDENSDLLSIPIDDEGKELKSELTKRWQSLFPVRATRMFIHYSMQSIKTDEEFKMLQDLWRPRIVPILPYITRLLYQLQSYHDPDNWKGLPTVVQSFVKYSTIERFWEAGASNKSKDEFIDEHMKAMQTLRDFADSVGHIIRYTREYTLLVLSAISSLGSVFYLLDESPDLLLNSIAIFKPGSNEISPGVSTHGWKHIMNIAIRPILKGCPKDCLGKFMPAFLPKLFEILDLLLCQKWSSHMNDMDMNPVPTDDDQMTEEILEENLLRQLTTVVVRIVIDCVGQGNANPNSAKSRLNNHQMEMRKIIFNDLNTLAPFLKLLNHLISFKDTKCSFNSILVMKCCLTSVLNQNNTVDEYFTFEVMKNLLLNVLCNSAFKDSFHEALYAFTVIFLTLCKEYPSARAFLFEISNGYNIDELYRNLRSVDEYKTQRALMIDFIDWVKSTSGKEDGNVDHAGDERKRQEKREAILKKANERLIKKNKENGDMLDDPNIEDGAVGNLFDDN
# T2: GST-Kap123 (S. cerevisiae, UniProt P40069 1-1113)
# T2 construct: importin Kap123, S. cerevisiae; source: E. coli BL21, purified as previously described
# T2 sequence (looked up): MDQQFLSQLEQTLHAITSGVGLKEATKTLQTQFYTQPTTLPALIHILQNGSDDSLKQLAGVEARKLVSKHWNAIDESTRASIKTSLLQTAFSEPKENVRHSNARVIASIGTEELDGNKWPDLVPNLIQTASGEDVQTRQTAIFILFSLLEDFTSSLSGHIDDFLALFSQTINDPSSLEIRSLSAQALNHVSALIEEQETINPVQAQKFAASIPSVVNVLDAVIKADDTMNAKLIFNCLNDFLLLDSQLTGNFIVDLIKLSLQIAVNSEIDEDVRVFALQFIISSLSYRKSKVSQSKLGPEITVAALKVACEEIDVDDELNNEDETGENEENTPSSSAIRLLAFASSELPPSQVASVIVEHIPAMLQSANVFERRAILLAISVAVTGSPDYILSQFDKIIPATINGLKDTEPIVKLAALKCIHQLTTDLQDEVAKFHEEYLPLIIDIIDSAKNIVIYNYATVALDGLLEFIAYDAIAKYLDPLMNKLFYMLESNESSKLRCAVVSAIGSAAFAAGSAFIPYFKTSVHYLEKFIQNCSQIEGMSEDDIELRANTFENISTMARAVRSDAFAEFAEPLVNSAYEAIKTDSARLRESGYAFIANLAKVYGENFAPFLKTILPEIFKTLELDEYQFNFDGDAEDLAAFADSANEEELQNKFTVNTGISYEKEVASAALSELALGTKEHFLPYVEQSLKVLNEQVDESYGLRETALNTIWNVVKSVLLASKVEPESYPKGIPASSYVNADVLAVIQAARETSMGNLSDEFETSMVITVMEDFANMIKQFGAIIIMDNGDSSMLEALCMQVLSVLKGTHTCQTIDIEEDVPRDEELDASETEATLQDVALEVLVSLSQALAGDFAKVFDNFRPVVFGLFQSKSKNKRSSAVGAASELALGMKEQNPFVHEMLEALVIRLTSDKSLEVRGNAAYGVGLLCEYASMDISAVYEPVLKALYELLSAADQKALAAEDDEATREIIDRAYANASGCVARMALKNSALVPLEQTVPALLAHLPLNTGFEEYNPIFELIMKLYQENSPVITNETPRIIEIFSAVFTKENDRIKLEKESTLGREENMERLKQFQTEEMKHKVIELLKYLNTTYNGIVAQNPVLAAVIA
# Legend:
# GST-Msn5 = target: T1, GST-Msn5; test: pull-down; GST-tagged importins immobilised on Glutathione Sepharose, incubated with buffer, purified Fap7 or Fap7:uS11 for 1 hr, in presence of 100 µl competing E. coli lysate; Coomassie and Western; details: both partners purified
# GST-Kap123 = target: T2, GST-Kap123; test: as above; details: both partners purified
binder,measurement,setting,value
"Fap7 (enzyme, S. cerevisiae, UniProt Q12055 1-197, looked up, Fap7, conserved ATPase, S. cerevisiae (YDL166C); only the complex is printed as His6-Fap7:uS11; also called purified Fap7; Fap7 alone; source: E. coli BL21, purified) MEARRYGPNIIVTGTPGCGKSSTCEFLKNKLKDYKYYNISDFAKDNDCFEGYDEGRKSHIVDEDKLLDMLEPLLRQGNSIVDWHVNDVFPERLIDLVVVLRCDNSNLYSRLHARGYHDSKIEENLDAEIMGVVKQDAVESYEPHIVVELQSDTKEDMVSNVSRIVAWEKMWLEQHPDGVTNEYQGPRSDDEDDEDSE",binding result,GST-Msn5,binds
same,binding result,GST-Kap123,binds
